According to patent publication US20180155451A1 (published 2018):

T1: FcγRIIb extracellular domain with C-terminal His tag (human, UniProt P31994 43-217)
T1 construct: extracellular domain; Soluble receptor expressed in FreeStyle293 cells, used as analyte in Biacore; also called FcgRIIb; 2b; not shown: His tag at the C terminus
T1 sequence (looked up): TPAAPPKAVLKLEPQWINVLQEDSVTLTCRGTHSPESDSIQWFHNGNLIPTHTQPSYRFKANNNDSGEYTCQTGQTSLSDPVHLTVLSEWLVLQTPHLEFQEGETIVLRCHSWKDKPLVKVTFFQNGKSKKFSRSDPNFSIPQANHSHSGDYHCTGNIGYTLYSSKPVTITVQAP

T2: FcγRIIb (human, UniProt P31994 43-217)
T2 construct: extracellular domain; also called FcgRIIb; 2b; not shown: His tag at the C terminus
T2 sequence (looked up): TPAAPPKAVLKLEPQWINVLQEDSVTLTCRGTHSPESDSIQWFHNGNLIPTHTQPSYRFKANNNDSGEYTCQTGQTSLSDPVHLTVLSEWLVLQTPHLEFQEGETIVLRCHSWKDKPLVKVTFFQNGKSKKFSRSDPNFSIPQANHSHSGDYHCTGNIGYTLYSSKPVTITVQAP


Tests used:
[1] = biological target: T3, FcγRIIIa extracellular domain with C-terminal His tag (human, UniProt P08637 17-208); assay: SPR (Biacore), antibody captured on antigen peptide chip, FcγR as analyte
T3 construct: extracellular domain; also called FcgRIIIa; 3a; not shown: His tag at the C terminus
Protocol: (§1) Analysis of interaction between objective antibody and the FcγR was carried out using Biacore T100 (GE Healthcare). HBS-EP+ (GE Healthcare) was used as the running buffer, and the measurement temperature was set to 25° C. Chips produced by immobilizing the antigen peptide by the amine coupling method to a Series S Sencor Chip CM5 (GE Healthcare), or alternatively, chips produced by allowing preliminarily biotinylated antigen peptides to interact with and immobilize onto a Series S Sensor Chip SA (certified) (GE Healthcare) were used. Antibodies of interest were captured onto an antigen peptide-immobilized chip, and allowed to interact to each FcγR diluted with running buffer. To regenerate and repeatedly use the chip, the antibodies captured on the chip were washed off by reacting 10 mM glycine-HCl, pH 1.5.
(§2) The FcγR-binding activity of each antibody was assessed primarily using as an indicator the FcγR-binding activity and dissociation constant for FcγR.

[2] = biological target: T1, FcγRIIb extracellular domain with …; assay: as above
Protocol: as §1, §2

[3] = biological target: T3, FcγRIIIa extracellular domain with …; assay: SPR; He/Con_3a divided by He/Con_2b (FcγRIIIa over FcγRIIb)
Protocol: as §1, §2

[4] = biological target: T2, FcγRIIb; assay: SPR (Biacore), antibody captured, FcγR as analyte; binding as % of GpH7-A5/GpH7-B3/GpL16-k0
[5] = biological target: T4, FcγRIa (human, UniProt P12314 16-292); assay: as above
T4 construct: extracellular domain; also called FcgRI; 1a; not shown: His tag at the C terminus

[6] = biological target: T4, FcγRIa; assay: SPR (Biacore); He/Con_1a (FcγRIa) divided by He/Con_2b (FcγRIIb)

T4 sequence (P12314 16-292): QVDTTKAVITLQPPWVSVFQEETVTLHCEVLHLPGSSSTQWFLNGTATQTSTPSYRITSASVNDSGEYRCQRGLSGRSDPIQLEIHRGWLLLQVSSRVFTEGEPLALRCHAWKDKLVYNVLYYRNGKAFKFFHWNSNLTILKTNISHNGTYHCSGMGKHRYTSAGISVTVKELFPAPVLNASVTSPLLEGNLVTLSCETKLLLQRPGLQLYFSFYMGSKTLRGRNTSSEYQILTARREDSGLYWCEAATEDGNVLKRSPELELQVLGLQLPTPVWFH
T3 sequence (P08637 17-208): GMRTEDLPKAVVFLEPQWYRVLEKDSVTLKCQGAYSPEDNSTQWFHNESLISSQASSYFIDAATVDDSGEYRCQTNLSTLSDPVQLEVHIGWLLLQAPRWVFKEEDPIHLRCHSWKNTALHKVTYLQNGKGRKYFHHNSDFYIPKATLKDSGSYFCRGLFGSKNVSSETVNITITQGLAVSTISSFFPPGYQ

| He/Con_3a [1] | He/Con_2b [2] | He_3a/2b (IIIa/IIb) [3] [ratio] | He/Con_2b [4] | He/Con_1a [5] | Ia/IIb He_1a/2b [6] [ratio] | Binder |
| --- | --- | --- | --- | --- | --- | --- |
| 75.1 relative binding (GpH7-A5/GpH7-B3/GpL16-k0 = 100) | 116 relative binding (GpH7-A5/GpH7-B3/GpL16-k0 = 100) | 0.65 | – | – | – | GpH7-A5/GpH7-B3 variant P331_10E/GpL16-k0 (antibody, human IgG1, kappa, Heterodimerized anti-glypican-3 IgG1; P331E (EU) only in the GpH7-B3 chain; also called He Ab) heavy 1: not shown heavy 2: not shown light: DIVMTQSPLSLPVTPGEPASISCQASESLVHSNRNTYLHWYLQKPGQSPQLLIYKVSNRFSGVPDRFSGSGSGTDFTLKISRVEAEDVGVYYCSQNTHVPPTFGQGTKVEIERTVAAPSVFIFPPSDEQLKSGTASVVCLLNNFYPREAKVQWKVDNALQSGNSQESVTEQDSKDSTYSLSSTLTLSKADYEKHKVYACEVTHQGLSSPVTKSFNRGEC |
| – | – | – | 171 % of control | 94.8 % of control | 0.55 | GpH7-A5/GpH7-B3 variant N325_07I/GpL16-k0 (antibody, human IgG1, kappa, heterodimerized IgG1; alteration in the GpH7-B3 H chain only; also called He Ab) heavy 1: not shown heavy 2: not shown light: DIVMTQSPLSLPVTPGEPASISCQASESLVHSNRNTYLHWYLQKPGQSPQLLIYKVSNRFSGVPDRFSGSGSGTDFTLKISRVEAEDVGVYYCSQNTHVPPTFGQGTKVEIERTVAAPSVFIFPPSDEQLKSGTASVVCLLNNFYPREAKVQWKVDNALQSGNSQESVTEQDSKDSTYSLSSTLTLSKADYEKHKVYACEVTHQGLSSPVTKSFNRGEC |
| – | – | – | 141 % of control | 100 % of control | 0.71 | GpH7-A5/GpH7-B3 variant L328_14T/GpL16-k0 (antibody, human IgG1, kappa, heterodimerized IgG1; alteration in the GpH7-B3 H chain only; also called He Ab) heavy 1: not shown heavy 2: not shown light: DIVMTQSPLSLPVTPGEPASISCQASESLVHSNRNTYLHWYLQKPGQSPQLLIYKVSNRFSGVPDRFSGSGSGTDFTLKISRVEAEDVGVYYCSQNTHVPPTFGQGTKVEIERTVAAPSVFIFPPSDEQLKSGTASVVCLLNNFYPREAKVQWKVDNALQSGNSQESVTEQDSKDSTYSLSSTLTLSKADYEKHKVYACEVTHQGLSSPVTKSFNRGEC |
| – | – | – | 147 % of control | 93.4 % of control | 0.64 | GpH7-A5/GpH7-B3 variant I332_09D/GpL16-k0 (antibody, human IgG1, kappa, heterodimerized IgG1; alteration in the GpH7-B3 H chain only; also called He Ab) heavy 1: not shown heavy 2: not shown light: DIVMTQSPLSLPVTPGEPASISCQASESLVHSNRNTYLHWYLQKPGQSPQLLIYKVSNRFSGVPDRFSGSGSGTDFTLKISRVEAEDVGVYYCSQNTHVPPTFGQGTKVEIERTVAAPSVFIFPPSDEQLKSGTASVVCLLNNFYPREAKVQWKVDNALQSGNSQESVTEQDSKDSTYSLSSTLTLSKADYEKHKVYACEVTHQGLSSPVTKSFNRGEC |
| – | – | – | 143 % of control | 93.2 % of control | 0.65 | GpH7-A5/GpH7-B3 variant N325_04F/GpL16-k0 (antibody, human IgG1, kappa, heterodimerized IgG1; alteration in the GpH7-B3 H chain only; also called He Ab) heavy 1: not shown heavy 2: not shown light: DIVMTQSPLSLPVTPGEPASISCQASESLVHSNRNTYLHWYLQKPGQSPQLLIYKVSNRFSGVPDRFSGSGSGTDFTLKISRVEAEDVGVYYCSQNTHVPPTFGQGTKVEIERTVAAPSVFIFPPSDEQLKSGTASVVCLLNNFYPREAKVQWKVDNALQSGNSQESVTEQDSKDSTYSLSSTLTLSKADYEKHKVYACEVTHQGLSSPVTKSFNRGEC |
| – | – | – | 235 % of control | 103 % of control | 0.44 | GpH7-A5/GpH7-B3 variant L328_20W/GpL16-k0 (antibody, human IgG1, kappa, heterodimerized IgG1; alteration in the GpH7-B3 H chain only; also called He Ab) heavy 1: not shown heavy 2: not shown light: DIVMTQSPLSLPVTPGEPASISCQASESLVHSNRNTYLHWYLQKPGQSPQLLIYKVSNRFSGVPDRFSGSGSGTDFTLKISRVEAEDVGVYYCSQNTHVPPTFGQGTKVEIERTVAAPSVFIFPPSDEQLKSGTASVVCLLNNFYPREAKVQWKVDNALQSGNSQESVTEQDSKDSTYSLSSTLTLSKADYEKHKVYACEVTHQGLSSPVTKSFNRGEC |
| – | – | – | 140 % of control | 103 % of control | 0.74 | GpH7-A5/GpH7-B3 variant A327_10E/GpL16-k0 (antibody, human IgG1, kappa, heterodimerized IgG1; alteration in the GpH7-B3 H chain only; also called He Ab) heavy 1: not shown heavy 2: not shown light: DIVMTQSPLSLPVTPGEPASISCQASESLVHSNRNTYLHWYLQKPGQSPQLLIYKVSNRFSGVPDRFSGSGSGTDFTLKISRVEAEDVGVYYCSQNTHVPPTFGQGTKVEIERTVAAPSVFIFPPSDEQLKSGTASVVCLLNNFYPREAKVQWKVDNALQSGNSQESVTEQDSKDSTYSLSSTLTLSKADYEKHKVYACEVTHQGLSSPVTKSFNRGEC |
| – | – | – | 193 % of control | 102 % of control | 0.53 | GpH7-A5/GpH7-B3 variant L328_15Y/GpL16-k0 (antibody, human IgG1, kappa, heterodimerized IgG1; alteration in the GpH7-B3 H chain only; also called He Ab) heavy 1: not shown heavy 2: not shown light: DIVMTQSPLSLPVTPGEPASISCQASESLVHSNRNTYLHWYLQKPGQSPQLLIYKVSNRFSGVPDRFSGSGSGTDFTLKISRVEAEDVGVYYCSQNTHVPPTFGQGTKVEIERTVAAPSVFIFPPSDEQLKSGTASVVCLLNNFYPREAKVQWKVDNALQSGNSQESVTEQDSKDSTYSLSSTLTLSKADYEKHKVYACEVTHQGLSSPVTKSFNRGEC |
